Laboratory results reported in publication PMC6697693, “head-bent resistant Hsc70 variants show reduced Hsp40 affinity and altered protein folding activity” (Scientific Reports, 2019).
Values belong to the binder of their own block, whether it stands above or below them.

Experiments:
[1] = molecular target: T1, wild type Hsc70 (nematode Hsc70, HSP-1) (C. elegans, UniProt P09446 1-640); test: AUC; sedimentation velocity with fluorescence detection, 300 nM *BAG-1 with 2 µM Hsc70 variant, 42,000 rpm, 20 °C, 40 mM HEPES/KOH pH 7.5, 150 mM KCl, 1 mM DTT, 5 mM MgCl2; without nucleotide, and with ADP (complex diminished); details: both partners purified
T1 construct: Hsc70 (HSP-1) of C. elegans, encoded by hsp-1, the sole functional Hsc70-like protein of the nematode; About 70 kDa by ultracentrifugation; also called Hsc70 wild type; CeHsc70; source: expressed from pET28b-Hsc70, purified (Ni-NTA, ion-exchange, size exclusion chromatography)

Hsc70 D384N = molecular target: T2, Hsc70 D384N (C. elegans, UniProt P09446 1-640, D384N); test: as above; details: both partners purified
T2 construct: Hsc70 (HSP-1) of C. elegans, encoded by hsp-1, with the suppressor mutation D384N; Mutation was identified as a suppressor of unc-23(ok1408); source: expressed from mutated pET28b-Hsc70 (QuickChange PCR), purified (Ni-NTA, ion-exchange, size exclusion chromatography)

Hsc70 D233N = molecular target: T3, Hsc70 D233N (C. elegans, UniProt P09446 1-640, D233N); test: as above; details: both partners purified
T3 construct: Hsc70 (HSP-1) of C. elegans, encoded by hsp-1, with the suppressor mutation D233N; Mutation was found in a mutagenesis screen as a suppressor of unc-23(e25); source: expressed from mutated pET28b-Hsc70 (QuickChange PCR), purified (Ni-NTA, ion-exchange, size exclusion chromatography)

Hsc70 A379V = molecular target: T4, Hsc70 A379V (C. elegans, UniProt P09446 1-640, A379V); test: as above; details: both partners purified
T4 construct: Hsc70 (HSP-1) of C. elegans, encoded by hsp-1, with the suppressor mutation A379V; Mutation was found in a mutagenesis screen as a suppressor of unc-23(e25); source: expressed from mutated pET28b-Hsc70 (QuickChange PCR), purified (Ni-NTA, ion-exchange, size exclusion chromatography)

[2] = molecular target: the molecule itself; test: AUC; sedimentation velocity, UV/VIS optics, 0.5 mg/mL protein; dc/dt plots and UltraScan II analysis; oligomerization status of Hsc70 variants

T4 sequence (P09446 whole entry A379V): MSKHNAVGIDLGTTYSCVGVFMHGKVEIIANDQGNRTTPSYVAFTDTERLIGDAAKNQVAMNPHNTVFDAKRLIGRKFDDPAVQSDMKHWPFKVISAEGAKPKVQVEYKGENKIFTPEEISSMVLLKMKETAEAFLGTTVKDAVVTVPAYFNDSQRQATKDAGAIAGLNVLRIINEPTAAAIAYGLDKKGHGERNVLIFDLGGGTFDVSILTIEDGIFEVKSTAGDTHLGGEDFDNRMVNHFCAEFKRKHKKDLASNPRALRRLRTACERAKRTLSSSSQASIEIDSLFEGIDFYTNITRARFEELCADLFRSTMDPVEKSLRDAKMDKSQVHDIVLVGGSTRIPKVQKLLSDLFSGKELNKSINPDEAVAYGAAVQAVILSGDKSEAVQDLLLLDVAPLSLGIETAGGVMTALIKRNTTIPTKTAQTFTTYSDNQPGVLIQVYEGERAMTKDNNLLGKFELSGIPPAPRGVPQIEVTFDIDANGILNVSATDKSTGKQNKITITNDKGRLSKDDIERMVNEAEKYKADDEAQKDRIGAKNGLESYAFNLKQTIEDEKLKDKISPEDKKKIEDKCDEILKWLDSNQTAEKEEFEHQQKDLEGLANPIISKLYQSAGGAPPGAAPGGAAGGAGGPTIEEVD
T3 sequence (P09446 whole entry D233N): as the sequence (P09446 whole entry A379V) above, with D233N, V379A counted along it
T1 sequence (P09446 whole entry): as the sequence (P09446 whole entry A379V) above, with V379A counted along it
T2 sequence (P09446 whole entry D384N): as the sequence (P09446 whole entry A379V) above, with V379A, D384N counted along it

binding result [1]: binds | binding result (Hsc70 D384N): binds | binding result (Hsc70 D233N): binds | binding result (Hsc70 A379V): binds
B1: BAG-1 (nematode nucleotide exchange factor), fluorescently labelled (natural protein, C. elegans, UniProt O44739 1-210, looked up)
chain: MKVNVSCSSVQTTIDILEENQGEDESILTLGQLRDRIATDNDVDVETMKLLHRGKFLQGADDVSLSTLNFKENDKIIVMGGKNALVDDAGFKMLMQYEKHNLSNLQKAYDLNLRDVADLERGFLEKPKQVEMGKKLEKKVKYFNEEAERHLETLDGMNIITETTPENQAKRNREKRKTLVNGIQTLLNQNDALLRRLQEYQSVLNGDIPE
modifications: ATTO 488 C5-maleimide at its cysteine residue
notes: BAG-1, nucleotide exchange factor of Hsc70 in C. elegans; unlabelled BAG-1 was used in the ATPase assays

B2: Hsc70 S321F (natural protein)
chain: not shown
notes: Hsc70 (HSP-1) of C. elegans, encoded by hsp-1, with the suppressor mutation S321F; forms heterogeneous oligomers; source: expressed from mutated pET28b-Hsc70 (QuickChange PCR), purified (Ni-NTA, ion-exchange, size exclusion chromatography)
binding result [2]: binds
